In patent publication EP1615032A1 (Kido, Hiroshi, dated 2006):

Target: T1, purified mouse VDAC protein (mouse, UniProt Q3U6K8 2-283)
T1 construct: Used as a 100 ng/ml solution over dot-blotted ligands; also called voltage-dependent anion channel
Assay: dot blot on nitrocellulose; bound VDAC detected with anti-VDAC antibody and ECL

- binding result: no binding
B1: human microplasmin (enzyme, UniProt P00747 550-810, looked up)
chain: KLYDYCDVPQCAAPSFDCGKPQVEPKKCPGRVVGGCVAHPHSWPWQVSLRTRFGMHFCGGTLISPEWVLTAAHCLEKSPRPSSYKVILGAHQEVNLEPHVQEIEVSRLFLEPTRKDIALLKLSSPAVITDKVIPACLPSPNYVVADRTECFITGWGETQGTFGAGLLKEAQLPVIENKVCNRYEFLNGRVQSTELCAGHLAGGTDSCQGDSGGPLVCFEKDKYILQGVTSWGLGCARPNKPGVYVRVSRFVTWIEGVMRNN
notes: 50 ng dot blotted onto a nitrocellulose membrane; also called microplasmin having no Kringle domain
